Target: T1, human C5aR (CD88) (human, UniProt P21730 1-350)
T1 sequence (looked up): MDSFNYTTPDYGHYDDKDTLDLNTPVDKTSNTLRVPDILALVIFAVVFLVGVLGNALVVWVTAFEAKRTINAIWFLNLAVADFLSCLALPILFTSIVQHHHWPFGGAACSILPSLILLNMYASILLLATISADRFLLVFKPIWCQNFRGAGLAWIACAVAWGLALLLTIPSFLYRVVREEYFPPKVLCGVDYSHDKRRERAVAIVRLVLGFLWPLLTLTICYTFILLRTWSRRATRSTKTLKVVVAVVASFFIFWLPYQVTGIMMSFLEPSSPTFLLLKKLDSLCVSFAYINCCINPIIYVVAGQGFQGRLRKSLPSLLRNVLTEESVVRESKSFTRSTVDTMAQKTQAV
Assay: cell-based or functional assay

Substance	IC50 activity group, enzyme release assay [µM]	EC50, agonistic activity, enzyme release assay [µM]
3PP-Orn-Aze-cha-Bta-Phe-NH2 (peptide)	< 0.2	
3PP-[Orn-Hyp-cha-Trp-Nle] (peptide)	< 0.05	
(-CO-CH2-CH2-CO-)-Phe-Orn-Pro-cha-Bta-Phe-NH2 (peptide)	< 2	
(-CO-CH2-NH-CO-)-Phe-Orn-Pro-cha-Bta-Phe-NH2 (peptide)	< 0.2	
Ac-Ala-Phe-Orn-Aze-cha-Bta-Phe-NH2 (peptide)	< 0.05	
Ac-Arg-Phe-Orn-Aze-cha-Bta-Phe-NH2 (peptide)	< 0.05	
Ac-Cit-Phe-Orn-Aze-cha-Bta-Phe-NH2 (peptide)	< 0.05	
Ac-Dab-Phe-Orn-Aze-cha-Bta-Phe-NH2 (peptide)	< 0.2	
Ac-Ebw-Orn-Pro-cha-Trp-Phe-NH2 (peptide)	< 0.2	> 100
Ac-Eby-Orn-Pro-cha-Bta-Phe-NH2 (peptide)	< 0.05	
Ac-Gly-Phe-Orn-Aze-cha-Bta-Phe-NH2 (peptide)	< 0.02	
Ac-Gly-Phe-Orn-Aze-chg-Bta-Phe-NH2 (peptide)	< 0.2	
Ac-Gly-Phe-Orn-Aze-hch-Bta-Phe-NH2 (peptide)	< 0.2	
Ac-Gly-Thi-Orn-Aze-cha-Bta-Phe-NH2 (peptide)	< 0.05	
Ac-Guf-Phe-Orn-Aze-cha-Bta-Phe-NH2 (peptide)	< 0.2	
Ac-His-Phe-Orn-Aze-cha-Bta-Phe-NH2 (peptide)	< 0.2	
Ac-Hyp-Phe-Orn-Aze-cha-Bta-Phe-NH2 (peptide)	< 0.05	
Ac-Lys-Phe-Orn-Aze-cha-Bta-Phe-NH2 (peptide)	< 0.02	
Ac-Mff-Orn-Pro-cha-Bta-Phe-NH2 (peptide)	< 0.2	
Ac-Mff-Orn-Pro-hle-Bta-Phe-NH2 (peptide)	< 0.2	
Ac-Mff-Orn-Pro-hle-Mcf-Mff-NH2 (peptide)	< 0.2	
Ac-Mmy-Orn-Pro-hle-Pff-Phe-NH2 (peptide)	< 0.2	
Ac-NMF-Orn-Pro-cha-Bta-Phe-NH2 (peptide)	< 0.2	
Ac-Off-Orn-Pro-cha-Bta-Phe-NH2 (peptide)	< 0.05	

Substance	IC50 activity group, enzyme release assay [µM]	EC50, agonistic activity, enzyme release assay [µM]
Ac-Off-Orn-Pro-hle-Bta-Phe-NH2 (peptide)	< 0.05	
Ac-Orn-Phe-Orn-Aze-cha-Bta-Phe-NH2 (peptide)	< 0.2	
Ac-Pff-Orn-Pro-cha-Bta-Phe-NH2 (peptide)	< 0.05	
Ac-Pff-Orn-Pro-hle-Bta-Phe-NH2 (peptide)	< 0.2	
Ac-Pff-Orn-Pro-hle-Mcf-Pff-NH2 (peptide)	< 0.2	
Ac-Phe-Bta-Aze-cha-Bta-Phe-NH2 (peptide)	< 0.05	
Ac-Phe-Cit-Hyp-hle-Bta-Phe-NH2 (peptide)	< 0.2	
Ac-Phe-Cit-Pro-cha-Bta-Phe-NH2 (peptide)	< 0.2	
Ac-Phe-Cit-Pro-hle-Bta-Phe-NH2 (peptide)	< 0.05	
Ac-Phe-Cit-Ser-hle-Bta-Phe-NH2 (peptide)	< 0.2	
Ac-Phe-Dab-Aze-cha-Bta-Phe-NH2 (peptide)	< 0.05	
Ac-Phe-Dab-Aze-hle-Bta-Phe-NH2 (peptide)	< 0.05	
Ac-Phe-Dab-Pro-cha-Bta-Phe-NH2 (peptide)	< 0.02	
Ac-Phe-Dap-Pro-cha-Bta-Phe-NH2 (peptide)	< 0.2	
Ac-Phe-Ech-Pro-cha-Bta-Phe-NH2 (peptide)	< 0.2	
Ac-Phe-Eec-Pro-cha-Bta-Phe-NH2 (peptide)	< 0.2	
Ac-Phe-Eep-Pro-cha-Bta-Phe-NH2 (peptide)	< 0.2	
Ac-Phe-Fcn-Aze-cha-Bta-Phe-NH2 (peptide)	< 0.02	
Ac-Phe-Fcn-Pro-cha-Bta-Phe-NH2 (peptide)	< 0.02	
Ac-Phe-Fco-Pro-cha-Bta-Phe-NH2 (peptide)	< 0.05	
Ac-Phe-Fcp-Aze-cha-Bta-Phe-NH2 (peptide)	< 0.05	
Ac-Phe-Ffa-Aze-cha-Bta-Phe-NH2 (peptide)	< 0.05	
Ac-Phe-Ffa-Pro-cha-Bta-Phe-NH2 (peptide)	< 0.05	
Ac-Phe-Ffa-Pro-hle-Bta-Phe-NH2 (peptide)	< 0.02	

Substance	IC50 activity group, enzyme release assay [µM]	EC50, agonistic activity, enzyme release assay [µM]
Ac-Phe-Guf-Pro-cha-Bta-Phe-NH2 (peptide)	< 0.05	
Ac-Phe-Har-Aze-cha-Bta-Phe-NH2 (peptide)	< 0.02	
Ac-Phe-Har-Pro-cha-Bta-Phe-NH2 (peptide)	< 0.05	
Ac-Phe-Mpa-Pro-cha-Bta-Phe-NH2 (peptide)	< 0.2	
Ac-Phe-Nle-Pro-cha-Bta-Phe-NH2 (peptide)	< 0.2	
Ac-Phe-OrA-Pro-cha-Bta-Phe-NH2 (peptide)	< 0.2	
Ac-Phe-OrE-Pro-cha-Bta-Phe-NH2 (peptide)	< 0.2	
Ac-Phe-Orn(Ac)-Aze-cha-Bta-Phe-NH2 (peptide)	< 0.05	
Ac-Phe-Orn-Aze-cha-Bta-NH-CH2-CH2-Ph (peptide)	< 2	
Ac-Phe-Orn-Aze-cha-Bta-Phe-NH2 (peptide)	< 0.02	
Ac-Phe-Orn-Aze-cha-Bta-Phe-NH-Me (peptide)	< 2	
Ac-Phe-Orn-Aze-cha-Mcf-Phe-NH2 (peptide)	< 0.2	
Ac-Phe-Orn-Aze-cha-Pcf-Phe-NH2 (peptide)	< 2	
Ac-Phe-Orn-Aze-cha-Pff-Phe-NH2 (peptide)	< 0.2	
Ac-Phe-Orn-Aze-cha-Trp-Phe-NH2 (peptide)	< 0.05	> 100
Ac-Phe-Orn-Aze-hle-Bta-Phe-NH2 (peptide)	< 0.05	
Ac-Phe-Orn-Chy-cha-Bta-Phe-NH2 (peptide)	< 0.2	
Ac-Phe-Orn-Chy-hle-Pff-Phe-NH2 (peptide)	< 0.2	
Ac-Phe-Orn-Hse-cha-Bta-Phe-NH2 (peptide)	< 0.2	
Ac-Phe-Orn-Hyp-cha-Trp-Phe-NH2 (peptide)	< 2	
Ac-Phe-Orn-Hyp-hle-Bta-Phe-NH2 (peptide)	< 0.2	
Ac-Phe-Orn-Hyp-hle-Pff-Phe-NH2 (peptide)	< 0.2	
Ac-Phe-Orn-NMA-cha-Bta-Phe-NH2 (peptide)	< 0.2	
Ac-Phe-Orn-NMS-cha-Bta-Phe-NH2 (peptide)	< 0.2	
